Here are results for 31 molecules from paper PMC10786891, “Massively parallel profiling of RNA-targeting CRISPR-Cas13d”.

Positions count from the first letter of the chain named. In names and notes the source's numbering stands.

Sequences and labels used below:
B1: target 1 C2G,G12A (mixed)
RNA 1: CACCCGUGCAAAAAUGCAGGGGUCUAAAACUGAGCGGAUAACCUCUCUAUGG
RNA 2: GGGAAUGGAUCCACAUCUACGAAUUCGUACCAUAGAGAGAUUAUCCGCUGACCGAGAUCGGAAGAGCACACGU
B2: target 1 A18C,C22U (mixed)
RNA 1: B1 RNA 1
RNA 2: B1 RNA 2 with C30U, A34C, A40G, G50C
B3: target 1 insG 3' of 7,insU 3' of 7 (mixed)
RNA 1: B1 RNA 1
RNA 2: GGGAAUGGAUCCACAUCUACGAAUUCGUACCAUAGAGAGGUUAUCGUCGCUCACCGAGAUCGGAAGAGCACACGU
B4: target 1 insU 3' of 13,insG 3' of 6 (mixed)
RNA 1: B1 RNA 1
RNA 2: B3 RNA 2 with G40U, U41G, A43U, U44A, C45U, G46C, U47C, C48G
B5: target 1 insU 3' of 13,insA 3' of 4 (mixed)
RNA 1: B1 RNA 1
RNA 2: GGGAAUGGAUCCACAUCUACGAAUUCGUACCAUAGAGAGUGUUAUCCGCAUCACCGAGAUCGGAAGAGCACACGU
B6: target 1 U19A,C22U (mixed)
RNA 1: B1 RNA 1
RNA 2: B1 RNA 2 with C30U, U33A, A40G, G50C
B7: target 1 insU 3' of 4,insA 3' of 2 (mixed)
RNA 1: B1 RNA 1
RNA 2: B3 RNA 2 with G46C, U47G, G49U, C50U, U51C, C52A
B8: target 1 insU 3' of 12,insG 3' of 11 (mixed)
RNA 1: B1 RNA 1
RNA 2: B3 RNA 2 with A43G, C45A, G46U, U47C
B9: target 1 U11C,U19C (mixed)
RNA 1: B1 RNA 1
RNA 2: B1 RNA 2 with U33C, A40G, U41C, G50C
B10: target 1 insA 3' of 3,insA 3' of 2 (mixed)
RNA 1: B1 RNA 1
RNA 2: B3 RNA 2 with G46C, U47G, G49U, C50A, U51C, C52A
B11: target 1 insU 3' of 6,insG 3' of 2 (mixed)
RNA 1: B1 RNA 1
RNA 2: B3 RNA 2 with G46C, C48G, G49C, C50U, U51C, C52G
B12: target 1 C2G,G12U (mixed)
RNA 1: B1 RNA 1
RNA 2: B1 RNA 2 with A40U
B13: target 1 C2G,C21U (mixed)
RNA 1: B1 RNA 1
RNA 2: B1 RNA 2 with C31U, A40G
B14: target 1 C2A,C22G (mixed)
RNA 1: B1 RNA 1
RNA 2: B1 RNA 2 with C30G, A40G, G50A
B15: target 1 insA 3' of 12,insC 3' of 1 (mixed)
RNA 1: B1 RNA 1
RNA 2: B5 RNA 2 with U40G, G41A, A50U, U51C, C52A, A53C
B16: target 1 insU 3' of 9,insA 3' of 5 (mixed)
RNA 1: B1 RNA 1
RNA 2: B3 RNA 2 with C45U, G46C, U47C, C48G, G49A
B17: target 1 insA 3' of 12,insG 3' of 1 (mixed)
RNA 1: B1 RNA 1
RNA 2: B5 RNA 2 with U40G, G41A, A50U, U51C, C52A, A53G
B18: target 1 A9C,U10A (mixed)
RNA 1: B1 RNA 1
RNA 2: B1 RNA 2 with A40G, U42A, A43C, G50C
B19: target 1 insA 3' of 12,insA 3' of 2 (mixed)
RNA 1: B1 RNA 1
RNA 2: B5 RNA 2 with U40G, G41A, A50U, U51C, C52A
B20: target 1 C6A,A14G (mixed)
RNA 1: B1 RNA 1
RNA 2: B1 RNA 2 with A38G, A40G, C46A, G50C
B21: target 1 insU 3' of 18,insU 3' of 14 (mixed)
RNA 1: B1 RNA 1
RNA 2: GGGAAUGGAUCCACAUCUACGAAUUCGUACCAUAUGAGAUGGUUAUCCGCUCACCGAGAUCGGAAGAGCACACGU
B22: target 1 insC 3' of 15,insC 3' of 13 (mixed)
RNA 1: B1 RNA 1
RNA 2: B21 RNA 2 with U35G, G36A, A37G, G38C, U40G, G41C
B23: target 1 U10A,A20U (mixed)
RNA 1: B1 RNA 1
RNA 2: B1 RNA 2 with A32U, A40G, U42A, G50C
B24: target 1 G5C,A20U (mixed)
RNA 1: B1 RNA 1
RNA 2: B1 RNA 2 with A32U, A40G, G47C, G50C
B25: target 1 insC 3' of 18,insG 3' of 8 (mixed)
RNA 1: B1 RNA 1
RNA 2: B21 RNA 2 with U35C, U40G, G42U, U44A, A45U, U46G
B26: target 1 U3G,G13A (mixed)
RNA 1: B1 RNA 1
RNA 2: B1 RNA 2 with G39A, A40G, U49G, G50C
B27: target 1 insU 3' of 4,insG 3' of 1 (mixed)
RNA 1: B1 RNA 1
RNA 2: B3 RNA 2 with G46C, U47G, G49U, C50U, U51C, C52A, A53G
B28: target 1 insU 3' of 15,insU 3' of 4 (mixed)
RNA 1: B1 RNA 1
RNA 2: B5 RNA 2 with A38U, G39A, U40G, A50U
B29: target 1 insG 3' of 22,insA 3' of 10 (mixed)
RNA 1: B1 RNA 1
RNA 2: B21 RNA 2 with C31G, A32C, U33A, A34U, U35A, U40G, G42U, U44A
B30: target 1 insG 3' of 10,insA 3' of 5 (mixed)
RNA 1: B1 RNA 1
RNA 2: B5 RNA 2 with U40G, G41U, U43G, C49A, A50C
B31: target 1 insA 3' of 13,insC 3' of 13 (mixed)
RNA 1: B1 RNA 1
RNA 2: B3 RNA 2 with G40A, U41C, U42G, A43U, C45A, G46U, U47C

For the series, the target named is T1, EsCas13d, nuclease-dead (Eubacterium siraeum, UniProt B0MS50, R295A;H300A;R849A;H854A).
T1 sequence: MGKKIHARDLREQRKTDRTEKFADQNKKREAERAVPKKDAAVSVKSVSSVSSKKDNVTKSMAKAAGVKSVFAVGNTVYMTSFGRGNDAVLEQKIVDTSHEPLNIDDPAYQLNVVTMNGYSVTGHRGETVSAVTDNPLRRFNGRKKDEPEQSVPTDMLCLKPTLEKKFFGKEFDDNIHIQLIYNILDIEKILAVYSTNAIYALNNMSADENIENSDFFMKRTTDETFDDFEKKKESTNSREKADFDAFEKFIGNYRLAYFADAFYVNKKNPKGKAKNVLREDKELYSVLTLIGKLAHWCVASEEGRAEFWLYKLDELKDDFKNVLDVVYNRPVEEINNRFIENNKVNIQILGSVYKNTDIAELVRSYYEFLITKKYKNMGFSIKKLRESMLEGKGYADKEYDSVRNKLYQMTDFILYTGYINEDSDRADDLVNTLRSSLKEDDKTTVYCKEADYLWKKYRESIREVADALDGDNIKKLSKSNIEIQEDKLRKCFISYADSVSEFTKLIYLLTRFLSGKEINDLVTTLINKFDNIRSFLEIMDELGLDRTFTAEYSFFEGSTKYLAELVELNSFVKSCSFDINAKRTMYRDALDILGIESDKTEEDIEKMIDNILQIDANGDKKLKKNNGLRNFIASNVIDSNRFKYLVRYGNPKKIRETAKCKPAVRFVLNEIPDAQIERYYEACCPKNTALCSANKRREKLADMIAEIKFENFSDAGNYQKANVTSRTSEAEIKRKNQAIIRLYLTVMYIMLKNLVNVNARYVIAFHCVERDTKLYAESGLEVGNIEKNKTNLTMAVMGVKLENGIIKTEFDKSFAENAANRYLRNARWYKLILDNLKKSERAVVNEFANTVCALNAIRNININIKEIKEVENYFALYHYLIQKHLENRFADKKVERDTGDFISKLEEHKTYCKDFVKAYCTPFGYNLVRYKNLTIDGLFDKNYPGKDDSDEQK
Kind of series: crRNA (strand 1, pre-loaded); Mg2+; 40 mM Tris-HCl pH 7.5, 150 mM NaCl, 6 mM MgCl2, 1 mM DTT, 0.1% Tween-20, 0.2 mg/ml BSA; 25 C; 10 min per concentration, then washed. The conditions noted are these: tags: His6-TwinStrep-SUMO cleaved; N-terminal SNAP kept (SNAP-Surface 488); label: 3' end held by stalled T7 RNA polymerase.
Regarding B1, binding was characterised by a dissociation constant (Kd) of 3.51 ± 0.18 nM.

Regarding B2, binding was characterised by a dissociation constant (Kd) of 59 ± 7 nM.

Take B3: the equilibrium dissociation constant (Kd) (in general, the equilibrium constant for the complex coming apart) is 9.26 ± 0.34 nM.

B4 gave a Kd of 25 ± 5 nM.

B5: the Kd was found to be 13.5 ± 1.5 nM.

Molecule B6 showed a Kd of 70 ± 19 nM.

Regarding B7, binding was characterised by a dissociation constant (Kd) of 7.7 ± 0.6 nM.

Consider B8, for which binding was characterised by a dissociation constant (Kd) of 10.8 ± 0.7 nM.

In the case of B9, the Kd was ~80 nM.

In turn, B10 registered a dissociation constant Kd of 7.1 ± 0.4 nM.

Molecule B11 gave a Kd of 15.3 ± 1 nM.

Take B12: binding was put at a Kd of 7.14 ± 0.3 nM.

In turn, B13 displayed a Kd of 11.7 ± 1.6 nM.

As for B14, the Kd is ~80 nM.

On to B15, for which the affinity, expressed as Kd, was 27.4 ± 2.6 nM.

Consider B16, for which the dissociation constant Kd amounted to 6.6 ± 0.8 nM.

B17 registered a Kd of 28.9 ± 3.1 nM. This Kd is about 4.4-fold higher than that of the molecule before.

B18 showed a Kd of 13.9 ± 0.8 nM.

For the molecule B19, the affinity, expressed as Kd, was 34.2 ± 3.1 nM.

Turning to B20, the Kd was determined as 12.6 ± 0.9 nM.

With B21, the Kd is 73 ± 12 nM.

The molecule B22 yielded a Kd of 34 ± 4 nM.

On to B23, for which binding was characterised by a dissociation constant (Kd) of 87 ± 13 nM.

The molecule B24 yielded an equilibrium dissociation constant (Kd) of 63 ± 12 nM.

Molecule B25 registered a Kd of 53.4 ± 3.3 nM.

Molecule B26 had a Kd of 5.4 ± 0.8 nM.

As to B27, binding was characterised by a dissociation constant (Kd) of 6.8 ± 0.4 nM.

B28 yielded a Kd of 9.6 ± 0.6 nM.

In turn, B29 returned a Kd of 25 ± 1.5 nM.

B30 came in with a dissociation constant Kd of 30.5 ± 3.4 nM.

In the case of B31, the equilibrium dissociation constant (Kd) came to 23 ± 5 nM.
